Data taken from publication PMC5575849 (Developmental cell, 2017).

Molecular target: the molecule itself
Assay: single-cell single-molecule pull-down

B1: mNG::AraD (mNG::3xFlag::AraD) (enzyme, E. coli, UniProt P08203 1-231, looked up)
chain: MLEDLKRQVLEANLALPKHNLVTLTWGNVSAVDRERGVFVIKPSGVDYSVMTADDMVVVSIETGEVVEGTKKPSSDTPTHRLLYQAFPSIGGIVHTHSRHATIWAQAGQSIPATGTTHADYFYGTIPCTRKMTDAEINGEYEWETGNVIVETFEKQGIDAAQMPGVLVHSHGPFAWGKNAEDAVHNAIVLEEVAYMGIFCRQLAPQLPDMQQTLLDKHYLRKHGAKAYYGQ
stoichiometry N: 4
